Source: publication PMC5550493, “The Conserved Lysine-265 Allosterically Modulates Nucleotide- and Actin-binding Site Coupling in Myosin-2” (Scientific Reports, 2017)
Where a chain is given by its changes, count along the chain named. Names and notes keep the numbering of the source.

B1: Dd myosin-2 M765-2R wild type (Dd myosin-2 motor domain fused to two Dd α-actinin repeats) (other)
chain: MNPIHDRTSDYHKYLKVKQGDSDLFKLTVSDKRYIWYNPDPKERDSYECGEIVSETSDSFTFKTVDGQDRQVKKDDANQRNPIKFDGVEDMSELSYLNEPAVFHNLRVRYNQDLIYTYSGLFLVAVNPFKRIPIYTQEMVDIFKGRRRNEVAPHIFAISDVAYRSMLDDRQNQSLLITGESGAGKTENTKKVIQYLASVAGRNQANGSGVLEQQILQANPILEAFGNAKTTRNNNSSRFGKFIEIQFNSAGFISGASIQSYLLEKSRVVFQSETERNYHIFYQLLAGATAEEKKALHLAGPESFNYLNQSGCVDIKGVSDSEEFKITRQAMDIVGFSQEEQMSIFKIIAGILHLGNIKFEKGAGEGAVLKDKTALNAASTVFGVNPSVLEKALMEPRILAGRDLVAQHLNVEKSSSSRDALVKALYGRLFLWLVKKINNVLCQERKAYFIGVLDISGFEIFKVNSFEQLCINYTNEKLQQFFNHHMFKLEQEEYLKEKINWTFIDFGLDSQATIDLIDGRQPPGILALLDEQSVFPNATDNTLITKLHSHFSKKNAKYEEPRFSKTEFGVTHYAGQVMYEIQDWLEKNKDPLQQDLELCFKDSSDNVVTKLFNDPNIASRAKKGANFITVAAQYKEQLASLMATLETTNPHFVRCIIPNNKQLPAKLEDKVVLDQLRCNGVLEGIRITRKGFPNRIIYADFVKRYYLLAPNVPRDAEDSQKATDAVLKHLNIDPEQYRFGITKIFFRAGQLARIEEAREQRISEILEQTKSDYLKRANELVQWINDKQASLESRDFGDSIESVQSFMNAHKEYKKTEKPPKGQEVSELEAIYNSLQTKLRLIKREPFVAPAGLTPNEIDSTWSALEKAEQEHAEALRIELKRQKKIAVLLQKYNRILKKLENWATTKSVYLGSNETGDSITAVQAKLKNLEAFDGECQSLEGQSNSDLLSILAQLTELNYNGVPELTERKDTFFAQQWTGVKSSAETYKNTLLAELERLQKIEDSLV
notes: Dictyostelium discoideum myosin-2 heavy chain (mhcA gene), first 765 residues (motor domain); Dictyostelium discoideum α-actinin, codon 264 to 505 (two α-actinin repeats, artificial lever arm); Expression vector based on pDXA-3H; also called WT; M765-2R WT; source: Dictyostelium discoideum AX3-Orf+ cells, purified (Ni-NTA)
B2: Dd myosin-2 M765-2R K265A (other)
chain: B1 chain with K265A
notes: Dictyostelium discoideum myosin-2 heavy chain (mhcA gene), first 765 residues (motor domain), with K265A; Dictyostelium discoideum α-actinin, codon 264 to 505 (two α-actinin repeats, artificial lever arm); Point mutant of the fusion construct m1; source: Dictyostelium discoideum AX3-Orf+ cells, purified (Ni-NTA)
B3: Dd myosin-2 M765-2R K265Q (other)
chain: B1 chain with K265Q
notes: Dictyostelium discoideum myosin-2 heavy chain (mhcA gene), first 765 residues (motor domain), with K265Q; Dictyostelium discoideum α-actinin, codon 264 to 505 (two α-actinin repeats, artificial lever arm); Point mutant of the fusion construct m1; source: Dictyostelium discoideum AX3-Orf+ cells, purified (Ni-NTA)
B4: Dd myosin-2 M765-2R K265E (other)
chain: B1 chain with K265E
notes: Dictyostelium discoideum myosin-2 heavy chain (mhcA gene), first 765 residues (motor domain), with K265E; Dictyostelium discoideum α-actinin, codon 264 to 505 (two α-actinin repeats, artificial lever arm); Point mutant of the fusion construct m1; source: Dictyostelium discoideum AX3-Orf+ cells, purified (Ni-NTA)

What follows are binders tested against F-actin (rabbit skeletal muscle actin) (rabbit, UniProt P68135 1-377) (assay: cell-based or functional assay). Details: not given.

| k cat/K app, calculated from k cat and K app of the actin-activated steady-state ATPase [µM⁻¹ s⁻¹] | Binder |
| --- | --- |
| 0.03 | B1 |
| 0.02 | B2 |
| 0.019 | B3 |
| 0.015 | B4 |

What follows are binders tested against Pyrene-labelled F-actin (rabbit skeletal muscle actin) (rabbit, UniProt P68135 1-377, pyrene label) (assay: other fluorescence titration; stopped-flow, pyrene-actin fluorescence; k+A from the slope of observed rate constants against actin concentration; k-A by chasing pyrene-actin from the complex with a large excess of unlabelled F-actin; KA calculated as k-A/k+A; 25 mM MOPS, 100 mM KCl, 5 mM MgCl2, 1 mM DTT, pH 7.0, 20 °C). Details: both partners purified.

| Kd [nM] | koff [s⁻¹] | kon [M⁻¹ s⁻¹] | Binder |
| --- | --- | --- | --- |
| 3.6 | 0.0049 | 1.37e+06 | B1 |
| 7.5 | 0.0104 | 1.38e+06 | B2 |
| 7.6 | 0.0078 | 1.02e+06 | B3 |
| 10.1 | 0.0113 | 1.11e+06 | B4 |
